Data published in patent publication US20250051400A1.

Experiments:
human IgG2 (Panitumomab) = assay: SPR, Biacore 3000, 25 C, Langmuir 1:1 model
human IgG4 (Natalizumab) = assay: SPR, Biacore 3000, 25 C, Langmuir 1:1 model

Work on “Wt C-domain (wild-type Protein A domain C) (from UniProt P38507 270-327)” yielded a Kd (human IgG2 (Panitumomab)) of 129 nM and a Kd (human IgG4 (Natalizumab)) of 8 nM.
